This is an account of results in doi:10.1101/2024.07.03.601496.

Test [1] deals with Exd (for EMSA) (Drosophila) (UniProt P40427). Briefly: native gel or EMSA.
Test [2] has as its target Hth (for EMSA) (Drosophila) (UniProt O46339). Briefly: native gel or EMSA. Background: A gel shift assay detects complexes by their altered migration in electrophoresis.
UniProt O46339, sequence (O46339 whole entry): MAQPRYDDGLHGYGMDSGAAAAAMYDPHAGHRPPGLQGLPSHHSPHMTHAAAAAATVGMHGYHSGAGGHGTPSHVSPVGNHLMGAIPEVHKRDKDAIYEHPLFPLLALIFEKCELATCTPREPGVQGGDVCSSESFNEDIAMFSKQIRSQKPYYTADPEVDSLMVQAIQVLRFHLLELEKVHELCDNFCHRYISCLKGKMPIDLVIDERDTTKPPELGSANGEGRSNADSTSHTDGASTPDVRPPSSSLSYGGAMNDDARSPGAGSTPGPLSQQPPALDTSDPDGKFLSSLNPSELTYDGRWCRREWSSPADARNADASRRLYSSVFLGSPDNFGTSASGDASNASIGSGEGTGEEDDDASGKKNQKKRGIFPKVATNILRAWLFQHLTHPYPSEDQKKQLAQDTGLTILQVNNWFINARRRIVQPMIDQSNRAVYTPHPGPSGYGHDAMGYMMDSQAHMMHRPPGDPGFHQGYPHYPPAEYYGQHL

UniProt P40427, sequence (P40427 whole entry): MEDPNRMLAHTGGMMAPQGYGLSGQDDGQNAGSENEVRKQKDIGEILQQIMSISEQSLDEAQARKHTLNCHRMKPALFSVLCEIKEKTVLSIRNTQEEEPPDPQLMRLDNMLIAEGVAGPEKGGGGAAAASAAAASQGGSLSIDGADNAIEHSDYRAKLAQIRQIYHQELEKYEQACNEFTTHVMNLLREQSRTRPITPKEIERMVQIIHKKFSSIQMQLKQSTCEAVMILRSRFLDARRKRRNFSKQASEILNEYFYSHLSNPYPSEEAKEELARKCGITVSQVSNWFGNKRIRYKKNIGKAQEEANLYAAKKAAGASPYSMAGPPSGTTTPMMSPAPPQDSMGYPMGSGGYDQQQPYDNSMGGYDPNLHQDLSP

In the case of “Abd-B^QR (QR>AA, for EMSA) (from UniProt P09087 1-493) (natural protein)”, the percent reduction of the trimeric complex against wild type Abd-B in test [1] and in test [2] was 25% in each case.
Take “Abd-B^W (W>A, for EMSA) (from UniProt P09087 1-493) (natural protein)”: the percent reduction of the trimeric complex against wild type Abd-B in test [1] and in test [2] was 56% throughout.
